# Assay results reported in paper PMC5904244, “Oligomeric states in sodium ion-dependent regulation of cyanobacterial histidine kinase-2” (Protoplasma, 2017).
# Several values for one entry are separate records, joined by “and”; a condition that tells them apart may be missing. Equal entries are not always repeated.
# B1: full-length Synechocystis sp. PCC 6803 histidine kinase 2 (Hik2) (enzyme, UniProt P73276 1-434, looked up)
# chain: MAGSISSMYSPSAGLISLCQSQVRLLQQGLRVDWCGVYLNQEETEQGLVPLVVSHGSTLVESESYGLISLPQGEVSPPMDDFSLPAVPVGVGQLSRRSRLEPPPFDADKRLVLPLVYGEEMVGLLVIHRSQGQWHGEEMMQLEAIAKSLAVACLLDQQQDWYRQAWEEQNQQYQWERQHWADLLHQLRNPLTALKTFSKLLLKRWHGDNKSQQVVEGIVRQGEHLQELLQSFEASQSQGPEAVPLLSSSPVTTIQVLPPADRVETMPLANFSLGEVLPPILLAHQAIAAERNITLTAQIALIDTVVMANRLALREVVNNLLDNGIKYTPNGGLVEVSLALEKVSSSGMDWATLAIADTGYGIPPEDQQKIFERNYRGVQGRGSINGTGLGLAIVADLVAQMGGKITVTSPNGLSRDPDQPGSTFTLWLRSGEQV
# notes: Histidine kinase 2 (Hik2), slr1147, Synechocystis sp; PCC 6803, full length; calculated molecular mass 48.5 kDa
# B2: full-length Thermosynechococcus elongatus BP-1 Hik2 (enzyme, UniProt Q8DMC5 1-385, looked up)
# chain: MLWPASEEFAALCRTQLELVVNSLGASSLAVYLSETLNDSPSWSPVAVYPEAASLLSLAIPPTLPPPTQVPETSLSHYPQQVVSSLANQLILPLMYQNWVLGVLVAQRQHRPWLAAEQAQLQQVAQTLAIACVLDQRQQWLSHSPAQPLDQRQQRFDDLLHQLRNPVAAIRTFVKLLLKRLEPDHKGRPLAEGIAKETERLMALLEDYRQQRNDIPALTGSQPLPLAGKPLDLAETLLPLISAAQARAEMEGKTFVVEIPPQLPPIWLEERVLQEVVGNLLDNAFKYTPKGGTIGLRLMLSSPALELTVWDTGCGIPKEAQPRLFERGYRGVQADSGIEGSGLGLAIAQDLLRPYGLSLRVTSPYAGDRGTAFTLAIPWQMKVEP
# notes: Histidine kinase 2 (Hik2), tlr0195, Thermosynechococcus elongatus BP-1, full length; calculated molecular mass 44.2 kDa; The forward primer has catatgATG, so one extra N-terminal Met may be present; A C-terminal His tag from the vector is surmised
# B3: truncated core kinase domain of Thermosynechococcus elongatus BP-1 Hik2 containing only the DHp and CA subdomains (domain or fragment, UniProt Q8DMC5 142-385, looked up)
# chain: SHSPAQPLDQRQQRFDDLLHQLRNPVAAIRTFVKLLLKRLEPDHKGRPLAEGIAKETERLMALLEDYRQQRNDIPALTGSQPLPLAGKPLDLAETLLPLISAAQARAEMEGKTFVVEIPPQLPPIWLEERVLQEVVGNLLDNAFKYTPKGGTIGLRLMLSSPALELTVWDTGCGIPKEAQPRLFERGYRGVQADSGIEGSGLGLAIAQDLLRPYGLSLRVTSPYAGDRGTAFTLAIPWQMKVEP
# notes: Hik2 (tlr0195), Thermosynechococcus elongatus BP-1, kinase domain (DHp and CA), amino acids 142-386; calculated molecular mass 26.2 kDa; The forward primer has catatgATG, so added N-terminal Met residues are likely; A C-terminal His tag from the vector is surmised
# B4: truncated DHp domain of Thermosynechococcus elongatus BP-1 Hik2 (domain or fragment, UniProt Q8DMC5 142-270, looked up)
# chain: SHSPAQPLDQRQQRFDDLLHQLRNPVAAIRTFVKLLLKRLEPDHKGRPLAEGIAKETERLMALLEDYRQQRNDIPALTGSQPLPLAGKPLDLAETLLPLISAAQARAEMEGKTFVVEIPPQLPPIWLEE
# notes: Hik2 (tlr0195), Thermosynechococcus elongatus BP-1, DHp domain, amino acids 142-270; calculated molecular mass 15.1 kDa; The forward primer has catatgATG, so added N-terminal Met residues are likely; A C-terminal His tag from the vector is surmised
# How the values were obtained:
# [1] = biological target: the molecule itself; test: cross-linking; DSP (1-11 mM; 2 mM in later experiments), 2-50 uM Hik2, 25 mM HEPES-NaOH pH 7.5, 5 mM KCl, 5 mM MgCl2, 23 °C, 10 min; no NaCl treatment; non-reducing 10% SDS-PAGE, Coomassie
# [2] = biological target: the molecule itself; test: negative-stain transmission electron microscopy, single-particle analysis; dilution series on carbon-coated grids, 2% uranyl acetate; class averages assigned subjectively to oligomeric families; buffer and salt not stated
# [3] = biological target: the molecule itself; test: SEC; Superdex 200 10/300GL, 20 mM Tris-HCl pH 7.6, 10 mM NaCl (low salt); apparent molecular masses from a calibration curve
# [4] = biological target: the molecule itself; test: SEC; Superdex 200 10/300GL, 20 mM Tris-HCl pH 7.6, 500 mM NaCl (high salt); apparent molecular masses from a calibration curve
Protein,stoichiometry N [1],stoichiometry N [2],stoichiometry N [3],stoichiometry N [4]
B1,4 and 6 and 8,2 and 3,,
B2,,,6,4
B3,,,6,4
B4,,,8,6
